Experimental data from publication PMC2724296 (Nucleic Acids Research, 2009).

Key:
ST1710 [1] = biological target: T1, ST1710 (Sulfurisphaera tokodaii, UniProt Q96ZY1); test: differential scanning calorimetry; assay type: binding
T1 sequence (Q96ZY1 1-146): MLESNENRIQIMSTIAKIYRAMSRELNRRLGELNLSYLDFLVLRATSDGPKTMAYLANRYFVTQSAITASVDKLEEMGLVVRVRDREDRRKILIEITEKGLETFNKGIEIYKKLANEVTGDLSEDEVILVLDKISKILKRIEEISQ

ST1710 [2] = biological target: T2, ST1710 (Sulfolobus tokodaii strain 7, UniProt Q96ZY1 1-146); test: crystal structure
T2 sequence: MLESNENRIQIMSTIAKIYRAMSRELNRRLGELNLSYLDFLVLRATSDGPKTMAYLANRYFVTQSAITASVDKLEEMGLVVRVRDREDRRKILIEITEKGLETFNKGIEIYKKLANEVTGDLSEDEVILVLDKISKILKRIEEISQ

ST1710 K91A = biological target: T3, ST1710 K91A (Sulfolobus tokodaii strain 7, UniProt Q96ZY1 1-146, K91A); test: EMSA
T3 sequence: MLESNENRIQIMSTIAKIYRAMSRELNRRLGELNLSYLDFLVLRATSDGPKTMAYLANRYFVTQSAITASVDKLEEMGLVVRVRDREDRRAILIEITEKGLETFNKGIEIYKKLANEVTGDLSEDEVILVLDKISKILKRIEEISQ

ST1710 R89A = biological target: T4, ST1710 R89A (Sulfolobus tokodaii strain 7, UniProt Q96ZY1 1-146, R89A); test: EMSA
T4 sequence: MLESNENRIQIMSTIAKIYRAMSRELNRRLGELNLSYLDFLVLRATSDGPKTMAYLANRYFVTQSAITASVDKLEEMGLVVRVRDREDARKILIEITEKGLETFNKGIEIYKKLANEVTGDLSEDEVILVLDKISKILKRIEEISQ

ST1710 R90A = biological target: T5, ST1710 R90A (Sulfolobus tokodaii strain 7, UniProt Q96ZY1 1-146, R90A); test: EMSA
T5 sequence: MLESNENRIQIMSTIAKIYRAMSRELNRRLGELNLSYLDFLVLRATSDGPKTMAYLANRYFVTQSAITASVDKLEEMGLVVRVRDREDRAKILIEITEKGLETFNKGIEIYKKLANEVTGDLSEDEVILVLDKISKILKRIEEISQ

Molecule | Kd (ST1710 [1]) | binding result (ST1710 [2]) | binding result (ST1710 K91A) | binding result (ST1710 R89A) | binding result (ST1710 R90A)
O=C(O)c1ccccc1O [sodium salicylate] | 20 ± 4.9 mM |  |  |  | 
30-mer putative st1710 promoter duplex (dsDNA) DNA 1: AATAATGTCATTGTTAACAATAGCAAAAAT DNA 2: ATTTTTGCTATTGTTAACAATGACATTATT |  | binds | no binding | no binding | no binding
